According to publication doi:10.1101/2020.05.02.073981:
Numbering of substitutions follows the chain as printed.

T1: His6-MmfR (Streptomyces coelicolor A3(2)) (UniProt Q7APH7)
T1 sequence: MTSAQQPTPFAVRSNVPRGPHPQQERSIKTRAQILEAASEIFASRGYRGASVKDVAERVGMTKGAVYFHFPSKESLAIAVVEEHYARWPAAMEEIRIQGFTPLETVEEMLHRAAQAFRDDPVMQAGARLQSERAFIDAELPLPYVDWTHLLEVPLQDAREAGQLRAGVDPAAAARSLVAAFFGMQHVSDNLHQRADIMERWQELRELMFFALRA

T2: MmfR Q130E Q130E (Streptomyces coelicolor A3(2)) (UniProt Q7APH7)
T2 sequence: T1 sequence with Q130E

T3: MmfR Y144F Y144F (Streptomyces coelicolor A3(2)) (UniProt Q7APH7)
T3 sequence: T1 sequence with Y144F

T4: MmfR Y85F Y85F (Streptomyces coelicolor A3(2)) (UniProt Q7APH7)
T4 sequence: T1 sequence with Y85F

T5: His6-MmfR (Streptomyces coelicolor A3(2), UniProt Q7APH7 1-214)
T5 sequence: T1 sequence

B1: MARE2 hairpin (structured_DNA)
DNA: GCAAAAAACCTTCGGGAAGGTTTGACGCGAGGCGTCAAACCTTCCCGAAGGTTTTTTGC
B2: MARE1 hairpin (structured_DNA)
DNA: GCAATATACCTGCGGGAAGGTATTATGCGAGGCATAATACCTTCCCGCAGGTATATTGC

How the values were obtained:
Experiment in all cases: EMSA
[1] = target: T1, His6-MmfR (Streptomyces coelicolor A3(2))
[2] = target: T2, MmfR Q130E Q130E (Streptomyces coelicolor A3(2))
[3] = target: T3, MmfR Y144F Y144F (Streptomyces coelicolor A3(2))
[4] = target: T4, MmfR Y85F Y85F (Streptomyces coelicolor A3(2))
His6-MmfR = target: T5, His6-MmfR

Row | Molecule | binding [1] | binding result (His6-MmfR) | also measured
1 | GGACCACCGGCTGGCTTGCCGCGCTGCAAGACAGCCGGGATCGGTAAGCTGACCGAGAGAAATATACCTGCGGGAAGGTATTATGCAATGGGTTTCCGTG (double strand) [mmfL-mmfR internal fragment, 100 bp] | binds | – | –
2 | GGCGCCTCACAGTGTCAAACCTTCCCGAAGGTTTTTTATGACTCGTAACGGAGAGTTAAACCGGGGCTTACGAGAGCGGCGGGGCCTCGGTGTTTGGA (double strand) [mmyB-mmyY internal fragment, 98 bp] | binds | – | –
3 | GGCGCCTCACAGTGTCAAACCTTCCCGAAGGTTTTTTATGACTCGTAACGGAGAGTTAAACCGGGGCTTACGAGAGCGGCGGGGCCTCGGTGTTTGGACCGCAACTCGGCGGGGCCCTGGTGCTGAGAACACCACGTCTGAGGCCCCTAGCAGAAGTTCGCTCTGGCAGCCTTCGCACGACCCTGCCGATACTCGCCAGCGATCCGAACCACTCGCCGAAGGAGTTCACC (double strand) [mmyB-mmyY intergenic region, 230 bp] | binds | – | –
4 | GGCTGCCTTCCTTCGTGTGTGCGGGCCCTGCGGGCGCCATGCTGGTGCGACCCGGGTCGGCACGGAAACCCATTGCATAATACCTTCCCGCAGGTATATTTCTCTCGGTCAGCTTACCGATCCCGGCTGTCTTGCAGCGCGGCAAGCCAGCCGGTGGTCCCGTACGAGGACACACCGGGAGATGTAGCGCCCCT (double strand) [mmfL-mmfR intergenic region, 194 bp] | binds | – | binding [2]: binds; binding [3]: binds; binding [4]: binds
5 | B1 | – | binds | –
6 | B2 | – | binds | –
